In the supplement of paper PMC10567573:

B1: PPP2R2C (parent)
chain: YSSSKGSLRLCDMRAAALCDKHSK

Variants of: B1
Experiment: protein stability index of a GFP-peptide fusion (GPS, HEK-293T) (PSI 1-6); higher = more stable
Conditions: c terminus: a fixed tail appended
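Further: lentivirally expressed fusions sorted by FACS into six bins by GFP to DsRed ratio, PSI derived from sequencing read proportions per bin multiplied by bin number.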

Protein stability index: each site, then its substitutions
H22: P 1.16, A 2.02, Y 1.91, T 2.11, Q 1.53, N 2.04, E 3.04, D 1.79, R 1.56, L 1.6, K 1.54, M 1.7, I 2.22, S 1.62
A15: R 1.38, H 1.78, K 1.58, L 1.54, M 2.72, I 1.96, P 2.43, G 2.24, D 1.72, Y 2.34, Q 1.77, F 2.4, W 1.81, S 2.31, C 1.14
S4: A 2.44, G 2.87, M 2, F 2.27, I 2.06, K 1.34, H 2.09, V 2.45, C 1.38, N 2.32, Q 2.32, D 2.96, R 2.11
M13: I 2.08, G 2, L 2, V 2.07, A 1.52, K 2.08, E 2.49, W 1.61, R 1.68, H 1.56, S 1.65, N 2.05
K21: F 1.95, S 2.21, I 1.48, W 2.12, D 1.78, G 2.12, T 1.86, N 1.9, A 2.35, P 2.79, Y 1.95, H 2.01, V 2.63, C 2.48, E 1.26, M 1.96
A17: Y 2.06, R 1.78, I 1.39, W 2.33, L 1.75, D 1.51, H 2.29, C 2.06, P 2.1, N 3.18, V 3.45, Q 3.18, S 1.31, G 1.61, K 1.85
S23: E 1.81, T 1.88, F 2.57, L 1.93, N 1.43, C 1.12, D 1.86, Q 1.85, V 2.4, M 2.19, I 2.01, Y 2.52, H 2.96
C19: M 1.68, W 1.69, R 2.06, F 2.32, T 1.71, S 1.73, Y 2.01, P 1.84, A 1.74, K 2.14, Q 1.69, G 1.25, D 2.3, H 1.56
S7: W 3.69, A 2.9, M 1.76, L 1.49, T 1.8, Y 1.94, Q 2.04, P 1.89, K 1.07, C 1.76
S3: M 2.84, R 2.29, C 3.48, I 3.06, P 2.79, V 1.96, K 2.37, D 2.92, N 2.48, G 1.95, Y 1.83, F 2.39, H 2.52, E 2.53, T 2.11, W 2.15
C11: E 3.85, R 3.31, G 2.92, T 2.88, L 2.36, V 1.8, N 3.72, A 2.96, F 1.67, I 1.42, D 3.74, H 3.63, M 2.29, Y 2.75, W 1.2, S 3.16
L18: I 1.96, G 1.52, S 1.79, F 1.69, A 2.15, T 1.81, W 1.44, N 1.65, P 1.58, C 1.55, K 1.73
R9: D 4.21, A 2.63, T 3.28, C 3.28, Q 3.3, K 3.11, V 2.91, H 2.42, E 3.7, N 3.45, I 1.7, P 3.11
Y1: G 3.72, F 2.31, L 3.65, C 2.98, Q 3.95, S 3.74, P 3.65, T 4.13, A 3.93, W 2.92, H 3.72, K 3.79, I 3.73
L10: R 3.16, N 3.67, C 2.95, K 3.1, Y 2.02, P 3.52, T 3.35, W 2.21, A 3.72, S 3.54, I 2.9, V 3.54, H 3.04
R14: D 1.55, N 2.48, L 2.18, V 1.81, E 2.3, K 1.68, T 1.98, W 1.69, P 1.8, A 2.03, C 2.89, G 2.13, S 2.02, F 2.27, M 2.29, Q 1.27
K24: R 1.9, W 2.51, Y 1.52, D 2.22, A 1.85, C 1.21, H 1.43, E 1.96, Q 1.64, V 1.74, T 2.39, P 1.9
D12: P 2.25, C 1.99, S 2.29, T 2.69, R 2.36, N 2.63, V 2.11, Y 2.1, I 1.6, K 2.54, M 1.78, W 2.7, L 1.82, F 1.52
S2: Y 2.94, K 3.58, R 2.98, F 2.8, G 2.46, L 2.52, T 2, I 1.54, N 3.28, C 1.92, Q 1.94, A 2.44, E 3.84, D 3.89, P 2.5
A16: G 2.55, H 2.06, R 2.04, P 1.64, N 2.05, K 2.53, C 2.56, W 1.23, D 2.85, M 1.5, F 2.2, Q 2.18, V 1.82
L8: A 1.75, T 1.97, N 2.36, M 1.79, P 2.27, F 2.5, H 2.64, S 2.02, C 2.5, K 2.17, D 2.76, R 1.51, Y 1.36
G6: N 1.94, E 2.68, P 2.48, F 1.81, I 2.31, R 2.05, M 1.85, H 2.04, S 1.82, L 2.18, W 1.76, T 2.07, K 2.2, C 1.95, A 1.91
D20: G 2.62, P 2.25, W 2.31, L 2.05, E 1.97, N 2.21, M 1.98, F 2.19, I 2.17, T 2.18, Q 2.33, H 2.64, C 1.41, K 2.6, R 3.31, S 1.81, V 2.58
K5: W 2.11, A 1.65, V 1.55, D 2.06, L 1.93, C 1.68, P 2.03, H 1.68, F 1.84, S 2.27, N 1.43, M 2.1, G 1.49, T 2.23, E 1.73, Y 1.52
